The values below come from publication PMC2941470.

The assay concerns the target endogenous DDX3X from HuH-7 cells (human (endogenous in HuH-7)) (UniProt O00571).
Chain of UniProt O00571 (O00571 whole entry): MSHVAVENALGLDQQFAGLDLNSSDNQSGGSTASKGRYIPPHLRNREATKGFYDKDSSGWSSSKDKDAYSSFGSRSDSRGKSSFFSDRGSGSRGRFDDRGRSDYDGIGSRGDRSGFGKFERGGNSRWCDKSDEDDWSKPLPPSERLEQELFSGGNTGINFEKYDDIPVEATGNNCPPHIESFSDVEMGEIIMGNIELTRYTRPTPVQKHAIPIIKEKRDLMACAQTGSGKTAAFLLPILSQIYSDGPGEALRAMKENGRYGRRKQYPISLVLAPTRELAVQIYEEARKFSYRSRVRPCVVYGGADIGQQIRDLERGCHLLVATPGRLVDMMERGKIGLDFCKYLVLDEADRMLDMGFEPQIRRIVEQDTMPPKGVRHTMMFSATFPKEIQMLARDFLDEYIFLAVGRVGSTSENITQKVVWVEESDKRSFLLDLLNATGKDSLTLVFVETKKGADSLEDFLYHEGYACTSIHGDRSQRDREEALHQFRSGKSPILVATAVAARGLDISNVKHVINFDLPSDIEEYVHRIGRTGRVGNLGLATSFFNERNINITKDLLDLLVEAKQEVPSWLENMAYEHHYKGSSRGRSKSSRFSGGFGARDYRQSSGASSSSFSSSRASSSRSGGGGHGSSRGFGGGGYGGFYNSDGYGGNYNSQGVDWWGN

Substance “GFP fusion to HCV core protein residues 16–36 (peptide)” came in with a level of HCV replicon NNeo/C-5B RNA in HuH-7 cells 48 h after transient transfection (Northern blot) of 50%.
